Article PMC10931652, “Recombinant Rod Domain of Vimentin Reduces SARS-CoV-2 Viral Replication by Blocking Spike Protein–ACE2 Interactions” (International Journal of Molecular Sciences, 2024)

Target: T1, recombinant spike S1S2 extracellular domain of SARS-CoV-2 (S1S2ECD-His) (SARS-CoV-2, UniProt P0DTC2 14-1213, IRDye 800CW NHS ester label (as the probe of the peptide array only))
T1 construct: also called SARS-CoV-2 spike protein; S1S2 protein
Assay: BLI; S1S2ECD-His amine-coupled on AR2G sensors (10 µg/mL in 10 mM sodium acetate pH 4); rhRod in solution, 8 concentrations a run; Octet Red384; KD by non-linear regression of the steady-state response
Conditions: both partners purified

B1: recombinant rod domain of vimentin (rhRod) (domain or fragment)
chain: not shown
modifications: IRDye 800CW NHS ester label (as the probe of the peptide array only)
notes: also called rhRod-1 to rhRod-7 (lots)
Kd: 163 nM
